Measurements taken from US20200407462A1 (MINERVA BIOTECHNOLOGIES, published 2020).
Changes are numbered by the printed parent chain.

B1: 31A1 monoclonal anti-MUC1* antibody (antibody, V domains shown)
VH: QVQLQQSGAELAKPGASVKMSCKASGYTFTSYWMHWVKQRPGQGLEWIGYINPSTGYTEYNQKFKDKATLTADKSSSTAYMQLSSLTSEDSAVYYCARAYIDYWGQGTTLTVSS
VL: DVLMTQTPLSLPVSLGDQASFSCRSSQSIVHSNGNTYLEWYLQKPGQSPKLLIYKVSNRFSGVPDRFSGSGSGTDFTLKINRVEAEDLGVYYCFQVSHFPWTFGGGTKLEIK
notes: Immunogen PSMGFR N+20/C-27 peptide; also called Antibody 31A1
B2: 39H5 monoclonal anti-MUC1* antibody (antibody, V domains shown)
VH: QIQLVQSGPELKKPGETVKISCKASGYTFTNYGMNWVKQAPGKGLKWMGWINTYTGEPTYVGDFKGRFAFSLETSASTAYLQINNLKNEDTATYFCVRGIHGYVDYWGQGTTLTVSS
VL: B1 VL with F21I, S32R, N81S, V96G, F99L
notes: Immunogen PSMGFR N+9/C-9 peptide; also called Antibody 39H5
B3: 25E6 monoclonal anti-MUC1* antibody (antibody, V domains shown)
VH: EVQLVESGGDLVKPGGSLKLSCAASGFTFSSYGMSWVRQTPDKRLEWVATISNGGRHTFYPDSVKGRFTISRDNAKNTLYLQMSSLKSEDTAMYLCVRQTGTEGWFAYWGQGTLVTVSA
VL: not shown
notes: Immunogen PSMGFR peptide; also called Antibody 25E6
B4: 18B4 monoclonal anti-MUC1* antibody (antibody, V domains shown)
VH: EVKLEESGGGLVQPGGSMKLSCAASGFTFNDAWMDWVRQSPEKGLEWVAEIRSTANIHTTYYAESVQGRFTISRDDSKSSVYLQMNSLRAEDTGIYYCTPLLYGFAYWGQGTLVTVSA
VL: DVVMTQSPLSLPVSLGDQASISCRTSQSLVHSNGNTYLHWHLQKPGQSPKVLIYKVSSRFSGVPDRFSGSGSGTDFTLKISRVEAEDLGVYFCSQNTHVPYTFGGGTKLEIK
notes: Immunogen PSMGFR peptide; also called Antibody 18B4
B5: 1E4 monoclonal anti-MUC1* antibody (antibody, V domains shown)
VH: QVQLQQSGAELVRPGSSVKISCKASGYAFSTYWMNWVKQRPGQGLEWIGQIYPGDSDTNYNGKFKGKATLTADKSSNTAYMQLSSLTSEDSAVFFCARGNHASMDYWGQGTSVTVSS
VL: B4 VL with S7T, T25S, H41Y, V51L, S58N, N96K, Y101W
notes: Immunogen PSMGFR N+20/C-27 peptide; also called Antibody 1E4
B6: 32C1 monoclonal anti-MUC1* antibody (antibody, V domains shown)
VH: EVKLEESGGGLVQSGGSMKLSCVASGFTFSNYWMNWVRQSPEKGLEWVAEIRLKSNNYAIHYAESVKGRFTISRDDSKSSVYLQMNNLRAEDTGIYYCTRVPGLDAYWGQGTLVTVSA
VL: B4 VL with S7T, T25S, H41Y, V51L, S58N, R82S, N96I, K108N
notes: Immunogen PSMGFR N+20/C-27 peptide; also called Antibody 32C1
B7: 29H1 monoclonal anti-MUC1* antibody (antibody, V domains shown)
VH: B4 VH with N30S, T54K, N56T, I57N, T59A, Q67K
VL: DVVMTQTPLSLPVSLGDQASISCRSGQSLVHSNGHTYLHWYLQKPGQSPRLLIYKVSNRFSGVPDRFSGSGSRADFTLKISRVEAEDLGVYFCSQTTHVPWTFGGGTKLEIK
notes: Immunogen PSMGFR N+20/C-27 peptide; also called Antibody 29H1
B8: 18G12 monoclonal anti-MUC1* antibody (antibody, V domains shown)
VH: QVQLQQSGAELVKPGASVKLSCKASGYTFTGYFLYWVKQRPGQGLEWIGGINPDNGGIDFNEKFRNKATLTVDKSSSTAYMQLSSLTSEDSAVYYCTLLIGNYWGQGTTLTVSS
VL: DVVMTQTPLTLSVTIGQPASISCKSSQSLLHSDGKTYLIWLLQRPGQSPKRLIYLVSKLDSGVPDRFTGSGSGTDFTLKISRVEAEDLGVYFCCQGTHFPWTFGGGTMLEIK
notes: Immunogen PSMGFR peptide; also called Antibody 18G12
B9: 28F9 monoclonal anti-MUC1* antibody (antibody, V domains shown)
VH: B8 VH with S7P, K13Q, Q43H, N52H, D54S, G57D, I58T, R65K, K74I, N102V
VL: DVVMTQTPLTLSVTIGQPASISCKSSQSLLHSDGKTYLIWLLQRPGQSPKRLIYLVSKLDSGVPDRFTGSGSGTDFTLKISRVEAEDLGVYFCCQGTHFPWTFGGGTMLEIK
notes: Anti-PSMGFR antibody; also called Antibody 28F9
B10: 20A10 monoclonal anti-MUC1* antibody (antibody, V domains shown)
VH: EVMLVESGGGLVKPGGSLKLSCAASGFTFSTYAMSWIRQTPEKRLEWVASIGRAGSTYYSDSVKGRFTISRDNVRNILYLQMSSLRSEDTAMYYCARGPIYNDYDEFAYWGQGTLVTVSA
VL: NIMMTQSPSSLAVSAGEKVTMSCKSSQSVLYSSNQKNYLAWYQQKPGQSPKLLIYWASTRESGVPDRFTGSGSGTDFTLTISSVQAEDLAVYYCHQYLSSLTFGAGTKLELK
notes: Immunogen PSMGFR peptide; also called Antibody 20A10
B11: 3C5 monoclonal anti-MUC1* antibody (antibody, V domains shown)
VH: QIQLVQSGPELKKPGETVKISCKASGYTFTNYGMNWVKQAPGKGLKWMGWINTYTGKPTYADDFKGRFAFSLETSASTAYLQINNLKNEDTATYFCARGGLDGYYGYWGQGTTLTVSS
VL: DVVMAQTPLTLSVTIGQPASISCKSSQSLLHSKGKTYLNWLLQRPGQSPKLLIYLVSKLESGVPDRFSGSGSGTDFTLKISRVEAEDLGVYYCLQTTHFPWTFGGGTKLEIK
notes: Immunogen PSMGFR N+9/C-9 peptide; also called Antibody 3C5

Tests used:
PSMGFR N+20/C-27 peptide = molecular target: T1, PSMGFR N+20/C-27 peptide; assay: selection of clones on the immunizing peptide
T1 construct: also called N+20/C-27 PSMGFR
T1 peptide: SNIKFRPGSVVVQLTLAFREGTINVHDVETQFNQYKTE

PSMGFR N+9/C-9 peptide = molecular target: T2, PSMGFR N+9/C-9 peptide; assay: selection of clones on the immunizing peptide
T2 peptide: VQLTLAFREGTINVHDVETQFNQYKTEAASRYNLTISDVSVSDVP

[1] = molecular target: T3, PSMGFR peptide (Primary Sequence of the MUC1 Growth Factor Receptor); assay: selection of clones on the immunizing peptide
T3 peptide: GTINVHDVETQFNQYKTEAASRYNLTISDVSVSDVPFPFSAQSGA

[2] = molecular target: T4, N-10 peptide (N-10 PSMGFR); assay: peptide binding, told in legend
T4 construct: also called PSMGFR N-10
T4 peptide: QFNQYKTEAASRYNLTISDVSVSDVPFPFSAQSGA

[3] = molecular target: T4, N-10 peptide (N-10 PSMGFR); assay: ELISA on peptides (FIG. 39)
Method: (§1) All monoclonal antibodies were first selected based on their ability to bind to the immunizing peptide. To further elucidate the epitope within that peptide to which the antibody binds, antibodies were tested for their ability to bind to the PSMGFR peptide, the N−10 peptide or the C−10 peptide.

[4] = molecular target: T5, C-10 peptide (C-10 PSMGFR); assay: ELISA on peptides
T5 construct: also called PSMGFR C-10
T5 peptide: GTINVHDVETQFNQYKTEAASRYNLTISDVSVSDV

[5] = molecular target: T5, C-10 peptide (C-10 PSMGFR); assay: binding to peptides (ELISA, FIG. 39)
Method: as §1

[6] = molecular target: T4, N-10 peptide (N-10 PSMGFR); assay: peptide binding, told in text

Row | Binder | binding result (PSMGFR N+20/C-27 peptide) | binding result [1] | further results
1 | B1 | binds | – | –
2 | B2 | – | – | binding result (PSMGFR N+9/C-9 peptide): binds
3 | B3 | – | binds | binding result [2]: binds
4 | B4 | – | binds | binding result [3]: no binding; binding result [4]: binds
5 | B5 | binds | – | –
6 | B6 | binds | – | –
7 | B7 | binds | – | –
8 | B8 | – | binds | binding result [4]: binds
9 | B9 | – | binds | binding result [4]: binds
10 | B10 | – | binds | binding result [5]: no binding; binding result [6]: binds
11 | B11 | – | – | binding result (PSMGFR N+9/C-9 peptide): binds
